Measurements published in article PMC9534960, “De Novo Design of an Androgen Receptor DNA Binding Domain‐Targeted peptide PROTAC for Prostate Cancer Therapy” (Advanced Science, 2022).
“And” between values parts separate entries of the source, which are not always exact repeats. Equal values may be shown once.

Columns and labels:
Conditions in all cases: both partners purified
[1] = molecular target: T1, AR DBD domain protein, labeled with rhodamine B (rhodamine B label); test: fluorescence polarisation; rhodamine B labeled AR DBD, 200 nM of AR DBD dimer in complex with DNA, rising AR pep‐PROTAC concentration; maximum FP taken as 100% dimer, minimum as monomer
T1 chain: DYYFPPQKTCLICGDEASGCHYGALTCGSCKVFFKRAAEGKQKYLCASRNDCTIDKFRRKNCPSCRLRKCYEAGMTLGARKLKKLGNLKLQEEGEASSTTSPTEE

[2] = molecular target: T2, MDM2, recombinant from E. coli (UniProt Q00987 1-491); test: ITC; protein (around 20 µM, 0.2 ml) in the sample cell, peptide (around 200 µM) in the syringe; 25 °C; first injection 0.4 µl, then 19 injections of 2 µl
T2 construct: E3 ligase MDM2; Plasmid bought from GenScript; also called E3 ligase MDM2; pET‐28a (MDM2)

MDMX = molecular target: T3, MDMX (UniProt O15151 1-490); test: as above
T3 construct: MDMX; MDMX is not in the methods' list of proteins made in E. coli
T3 sequence (looked up): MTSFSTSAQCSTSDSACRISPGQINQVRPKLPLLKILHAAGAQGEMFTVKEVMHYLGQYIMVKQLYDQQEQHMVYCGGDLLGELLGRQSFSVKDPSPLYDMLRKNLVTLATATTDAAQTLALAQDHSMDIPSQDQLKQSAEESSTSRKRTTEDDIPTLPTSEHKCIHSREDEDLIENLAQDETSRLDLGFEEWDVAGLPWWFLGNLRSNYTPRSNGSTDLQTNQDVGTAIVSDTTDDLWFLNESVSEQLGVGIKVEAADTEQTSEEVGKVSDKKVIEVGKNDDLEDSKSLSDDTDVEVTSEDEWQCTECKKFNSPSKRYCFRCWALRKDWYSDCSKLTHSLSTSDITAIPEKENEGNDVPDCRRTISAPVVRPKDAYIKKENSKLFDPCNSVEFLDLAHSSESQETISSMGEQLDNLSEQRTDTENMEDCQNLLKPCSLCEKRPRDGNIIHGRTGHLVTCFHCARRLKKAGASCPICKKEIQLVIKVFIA

[3] = molecular target: T4, Androgen receptor splice variant‐7 (AR‐V7), recombinant from E. coli (UniProt P10275-3 1-644); test: as above
T4 construct: Plasmid bought from GenScript; also called pET‐28a (AR – V7); pET28‐AR‐V7; not shown: His tag (from the vector pET‐28a)
T4 sequence (looked up): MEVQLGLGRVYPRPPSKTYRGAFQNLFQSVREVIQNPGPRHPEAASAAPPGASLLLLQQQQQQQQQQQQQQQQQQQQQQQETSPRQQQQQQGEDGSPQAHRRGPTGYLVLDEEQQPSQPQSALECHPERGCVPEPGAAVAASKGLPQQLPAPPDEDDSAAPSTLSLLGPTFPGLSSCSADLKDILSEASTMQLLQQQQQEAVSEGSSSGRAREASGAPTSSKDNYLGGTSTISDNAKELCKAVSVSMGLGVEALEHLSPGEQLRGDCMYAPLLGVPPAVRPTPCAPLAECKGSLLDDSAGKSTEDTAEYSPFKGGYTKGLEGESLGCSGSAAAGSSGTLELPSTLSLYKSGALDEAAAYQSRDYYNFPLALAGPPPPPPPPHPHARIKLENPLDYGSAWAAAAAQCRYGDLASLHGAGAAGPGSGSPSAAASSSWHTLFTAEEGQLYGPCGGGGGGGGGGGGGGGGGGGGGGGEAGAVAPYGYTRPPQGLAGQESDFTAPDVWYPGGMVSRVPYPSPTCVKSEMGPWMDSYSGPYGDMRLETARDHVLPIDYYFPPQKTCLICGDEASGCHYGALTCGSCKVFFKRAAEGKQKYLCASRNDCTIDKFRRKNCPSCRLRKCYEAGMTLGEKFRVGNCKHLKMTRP

T2 sequence (Q00987 whole entry): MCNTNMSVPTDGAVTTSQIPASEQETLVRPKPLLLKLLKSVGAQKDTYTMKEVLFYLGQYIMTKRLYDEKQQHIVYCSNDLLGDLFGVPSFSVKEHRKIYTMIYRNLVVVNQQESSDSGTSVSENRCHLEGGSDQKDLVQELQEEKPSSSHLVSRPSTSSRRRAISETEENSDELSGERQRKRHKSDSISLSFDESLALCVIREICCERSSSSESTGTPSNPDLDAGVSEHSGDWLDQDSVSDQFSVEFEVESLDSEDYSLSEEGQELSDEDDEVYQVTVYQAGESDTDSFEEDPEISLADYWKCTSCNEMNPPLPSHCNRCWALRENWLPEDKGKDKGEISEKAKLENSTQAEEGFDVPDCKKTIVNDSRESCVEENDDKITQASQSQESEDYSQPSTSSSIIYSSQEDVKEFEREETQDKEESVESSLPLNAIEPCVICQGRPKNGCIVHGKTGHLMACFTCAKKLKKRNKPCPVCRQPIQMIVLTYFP

B1: AR pep‐PROTAC drug (designed peptide PROTAC) (peptide)
peptide: YLCSSNNNRERDKFRRGGSGGTSFEQFWAWLWP
notes: flexible linker; Free peptide in ITC and fluorescence polarisation; also called AR DBD PROTAC; AR DBD PROTAC drug; source: synthetic peptide (solid‐phase peptide synthesis, preparative HPLC)
EC50 [1]: 1800 nM | Kd [2]: 12.2 nM | Kd (MDMX): 1430 nM | Kd [3]: 49.6 nM and 49.5 nM
